Here are results for three substances from publication PMC5028032, “Linkage between Fitness of Yeast Cells and Adenylate Kinase Catalysis” (PLoS ONE, 2016).

The test system of this series is Nc1ncnc2c1ncn2[C@@H]1O[C@H](COP(=O)(O)OP(=O)(O)OP(=O)(O)O)[C@@H](O)[C@H]1O. Nature of the series: purified protein. Particulars: 300 μM AMP constant, 2 mM MgCl2, 80 mM KCl, 100 mM Tris pH 7.5, 20°C.

Broadly, the Km is the concentration of substrate that gives half-maximal velocity. The term kcat denotes the maximal rate divided by the concentration of active sites. The kcat/Km is the second-order rate constant that governs catalysis at low substrate concentration. As to Adkeco (Escherichia coli K-12), the Michaelis constant (Km) stood at 72 ± 8 µM, the kcat is 305 s⁻¹ and the kcat/Km came to 4.26e+06 M⁻¹ s⁻¹.

For Adkeco (Escherichia coli K-12; G10V), the Michaelis-Menten constant (Km) was 411 ± 61 µM, the kcat was 60 s⁻¹ and the kcat/Km turned out to be 140000 M⁻¹ s⁻¹.

Adkeco (Escherichia coli K-12; T163C): the Michaelis-Menten constant (Km) came out at 37 ± 2 µM, the kcat is 143 s⁻¹ and the kcat/Km came out at 3.9e+06 M⁻¹ s⁻¹.
